Reference: the RNAGym collection of RNA variant scans (doi:10.7554/elife.80360)

B1: HDV Ribozyme (parent)
chain: GGCCGGCAUGGUCCCAGCCUCCUCGCUGGCGCCGGCUGGGCAACAUUCCGAGGGGACCGUCCCCUCGGUAAUGGCGAAUGGGACCCA

Variants of: B1
Test: self-cleavage, relative activity (ratio to wild type); higher = more cleavage; co-transcriptional

Row | Variant | self-cleavage
1 | GGCCGGCAUGGUCCCAGCCUCCUCGCUGGCGCCGGCUGGGCAACUUUCCGAGGGGACCGUCCCCUCGGAAAUGGCGAAUGGGACCCA [A45U U69A] | 0.77
2 | GGCCGGCAUGGUCCCAGCCUCCUCGCUGGCGCCGGCUGGGCAACUUUCCGAGGGAACCGUCCCCUCGGUAAUGGCGAAUGGGACCCA [A45U G55A] | 0.594
3 | GGCCGGCAUGGUCCCAGCCUCCUCGCUGGCGCCGGCUGGGCAACUUUCCGAGGGGACCGUCCCCUCGGUAAUCGCGAAUGGGACCCA [A45U G73C] | 0.62
4 | GGCCGGCAUGGUCCCAGCCUCCUCGCUGGCGCCGGCUGGGCAACUUUCCGAGGGGACCGUCCCCUCGGUAAUGGCGAAUGGUACCCA [A45U G82U] | 0.529
5 | GGCCGGCAUGGUCCCAGCCUCCUCGCUGGCGCCGGCUGGGCAACUUUCCGAGGGGACCGUCCCCUCGGUAAUGGCGAAUGGAACCCA [A45U G82A] | 0.162
6 | GGCCGGCAUGGUCCCAGCCUCCUCGCUGGCGCCGGCUGGGCAACUUUCCGAGGGGACCGUCCCCUCGGUAAUGGCGAAUUGGACCCA [A45U G80U] | 0.153
7 | GGCCGGCAUGGUCCCAGCCUCCUCGCUGGCGCCGGCUGGGCAACAAUCCGAGGGGAACGUCCCCUCGGUAAUGGCGAAUGGGACCCA [U46A C57A] | 0.851
8 | GGCCGGCAUGGUCCCAGCCUCCUCGCUGGCGCCGGCUGGGCAACAAUCCGAGGGGAUCGUCCCCUCGGUAAUGGCGAAUGGGACCCA [U46A C57U] | 0.657
9 | GGCCGGCAUGGUCCCAGCCUCCUCGCUGGCGCCGGCUGGGCAACUUUCCGAGGGGACCGUCCCCUCUGUAAUGGCGAAUGGGACCCA [A45U G67U] | 0.801
10 | GGCCGGCAUGGUCCCAGCCUCCUCGCUGGCGCCGGCUGGGCAACAAUCCGAGGGGACCGUCCCCUCGGUAAUGGCGAGUGGGACCCA [U46A A78G] | 0.277
11 | GGCCGGCAUGGUCCCAGCCUCCUCGCUGGCGCCGGCUGGGCAACAAUCCGAGGGGACCGUCCCCUCGGUAAUGGCGAUUGGGACCCA [U46A A78U] | 0.156
12 | GGCCGGCAUGGUCCCAGCCUCCUCGCUGGCGCCGGCUGGGCAACUUUCCGAGGGGACCGUCCCCUCGGUAAUGGCGAAUGGGACACA [A45U C85A] | 0.88
13 | GGCCGGCAUGGUCCCAGCCUCCUCGCUGGCGCCGGCUGGGCAACUUUCCGAGGGGACCGACCCCUCGGUAAUGGCGAAUGGGACCCA [A45U U60A] | 0.723
14 | GGCCGGCAUGGUCCCAGCCUCCUCGCUGGCGCCGGCUGGGCAACUUUCCGAGGGGACCGCCCCCUCGGUAAUGGCGAAUGGGACCCA [A45U U60C] | 0.911
15 | GGCCGGCAUGGUCCCAGCCUCCUCGCUGGCGCCGGCUGGGCAACUUUCCGAGGGGACCGUCCCCUCGGUAAGGGCGAAUGGGACCCA [A45U U72G] | 0.755
16 | GGCCGGCAUGGUCCCAGCCUCCUCGCUGGCGCCGGCUGGGCAACAAUCCGAGGGGACCGUCCCCUCGGUAAUGGCGUAUGGGACCCA [U46A A77U] | 0.115
17 | GGCCGGCAUGGUCCCAGCCUCCUCGCUGGCGCCGGCUGGGCAACAAUCCGAGGGGACCGUCCCCUCGGUAAUGGCGCAUGGGACCCA [U46A A77C] | 0.119
18 | GGCCGGCAUGGUCCCAGCCUCCUCGCUGGCGCCGGCUGGGCAACAAUCCGAGGGGACCGUCCCCUCGGUAAUGGCGGAUGGGACCCA [U46A A77G] | 0.646
19 | GGCCGGCAUGGUCCCAGCCUCCUCGCUGGCGCCGGCUGGGCAACAAUCCGAGGGGACCGUCCGCUCGGUAAUGGCGAAUGGGACCCA [U46A C63G] | 0.723
20 | GGCCGGCAUGGUCCCAGCCUCCUCGCUGGCGCCGGCUGGGCAACUUACCGAGGGGACCGUCCCCUCGGUAAUGGCGAAUGGGACCCA [A45U U47A] | 0.973
21 | GGCCGGCAUGGUCCCAGCCUCCUCGCUGGCGCCGGCUGGGCAACUUGCCGAGGGGACCGUCCCCUCGGUAAUGGCGAAUGGGACCCA [A45U U47G] | 0.867
22 | GGCCGGCAUGGUCCCAGCCUCCUCGCUGGCGCCGGCUGGGCAACUUCCCGAGGGGACCGUCCCCUCGGUAAUGGCGAAUGGGACCCA [A45U U47C] | 0.772

Row | Variant | self-cleavage
23 | GGCCGGCAUGGUCCCAGCCUCCUCGCUGGCGCCGGCUGGGCAACUUUCCGAGGGGACCGUCCCCUCGGUAAUGGUGAAUGGGACCCA [A45U C75U] | 0.321
24 | GGCCGGCAUGGUCCCAGCCUCCUCGCUGGCGCCGGCUGGGCAACAAUCCGAGGGGACCGUCCCCUCGGUAAUGGCGAAUGGGACCCG [U46A A87G] | 0.712
25 | GGCCGGCAUGGUCCCAGCCUCCUCGCUGGCGCCGGCUGGGCAACAAUCCGAGGGGACCGUCCCCUCGGUAAUGGCGAAUGGGACCCU [U46A A87U] | 0.76
26 | GGCCGGCAUGGUCCCAGCCUCCUCGCUGGCGCCGGCUGGGCAACUUUCCGAGUGGACCGUCCCCUCGGUAAUGGCGAAUGGGACCCA [A45U G53U] | 0.997
27 | GGCCGGCAUGGUCCCAGCCUCCUCGCUGGCGCCGGCUGGGCAACUUUCCCAGGGGACCGUCCCCUCGGUAAUGGCGAAUGGGACCCA [A45U G50C] | 0.767
28 | GGCCGGCAUGGUCCCAGCCUCCUCGCUGGCGCCGGCUGGGCAACUUUCCAAGGGGACCGUCCCCUCGGUAAUGGCGAAUGGGACCCA [A45U G50A] | 0.844
29 | GGCCGGCAUGGUCCCAGCCUCCUCGCUGGCGCCGGCUGGGCAACUUUCCGAGGGGACCGUCCCCCCGGUAAUGGCGAAUGGGACCCA [A45U U65C] | 1.04
30 | GGCCGGCAUGGUCCCAGCCUCCUCGCUGGCGCCGGCUGGGCAACUUUCCGAGGGGACCGUCCCCACGGUAAUGGCGAAUGGGACCCA [A45U U65A] | 0.618
31 | GGCCGGCAUGGUCCCAGCCUCCUCGCUGGCGCCGGCUGGGCAACAAUCCGAGGGGCCCGUCCCCUCGGUAAUGGCGAAUGGGACCCA [U46A A56C] | 0.802
32 | GGCCGGCAUGGUCCCAGCCUCCUCGCUGGCGCCGGCUGGGCAACAAUCCGAGGGGUCCGUCCCCUCGGUAAUGGCGAAUGGGACCCA [U46A A56U] | 0.704
33 | GGCCGGCAUGGUCCCAGCCUCCUCGCUGGCGCCGGCUGGGCAACAAUCCGAGGGGGCCGUCCCCUCGGUAAUGGCGAAUGGGACCCA [U46A A56G] | 0.831
34 | GGCCGGCAUGGUCCCAGCCUCCUCGCUGGCGCCGGCUGGGCAACAAUCCGGGGGGACCGUCCCCUCGGUAAUGGCGAAUGGGACCCA [U46A A51G] | 0.739
35 | GGCCGGCAUGGUCCCAGCCUCCUCGCUGGCGCCGGCUGGGCAACAAUCCGCGGGGACCGUCCCCUCGGUAAUGGCGAAUGGGACCCA [U46A A51C] | 0.831
36 | GGCCGGCAUGGUCCCAGCCUCCUCGCUGGCGCCGGCUGGGCAACAAUCCGUGGGGACCGUCCCCUCGGUAAUGGCGAAUGGGACCCA [U46A A51U] | 0.536
37 | GGCCGGCAUGGUCCCAGCCUCCUCGCUGGCGCCGGCUGGGCAACUUUCCGAGGGGACCGUCCCCUCGGUAAUGACGAAUGGGACCCA [A45U G74A] | 0.513
38 | GGCCGGCAUGGUCCCAGCCUCCUCGCUGGCGCCGGCUGGGCAACUUUCCGAGGGGACCGUCCCCUCGGUAAUGCCGAAUGGGACCCA [A45U G74C] | 0.0923
39 | GGCCGGCAUGGUCCCAGCCUCCUCGCUGGCGCCGGCUGGGCAACAAUCCGAGGGGACCGUGCCCUCGGUAAUGGCGAAUGGGACCCA [U46A C61G] | 0.808
40 | GGCCGGCAUGGUCCCAGCCUCCUCGCUGGCGCCGGCUGGGCAACAAUCCGAGGGGACCGUCUCCUCGGUAAUGGCGAAUGGGACCCA [U46A C62U] | 0.712
41 | GGCCGGCAUGGUCCCAGCCUCCUCGCUGGCGCCGGCUGGGCAACAAUCCGAGGGGACCGUCACCUCGGUAAUGGCGAAUGGGACCCA [U46A C62A] | 0.543
42 | GGCCGGCAUGGUCCCAGCCUCCUCGCUGGCGCCGGCUGGGCAACAAUCCGAGGGGACCGUCCCCUCGGUCAUGGCGAAUGGGACCCA [U46A A70C] | 0.831
43 | GGCCGGCAUGGUCCCAGCCUCCUCGCUGGCGCCGGCUGGGCAACAAUCCGAGGGGACCGUCCCCUCGGUUAUGGCGAAUGGGACCCA [U46A A70U] | 0.587
44 | GGCCGGCAUGGUCCCAGCCUCCUCGCUGGCGCCGGCUGGGCAACAAUCCGAGGGGACCGUCCCCUCGGUGAUGGCGAAUGGGACCCA [U46A A70G] | 1.01

Row | Variant | self-cleavage
45 | GGCCGGCAUGGUCCCAGCCUCCUCGCUGGCGCCGGCUGGGCAACUUUCCGAUGGGACCGUCCCCUCGGUAAUGGCGAAUGGGACCCA [A45U G52U] | 0.674
46 | GGCCGGCAUGGUCCCAGCCUCCUCGCUGGCGCCGGCUGGGCAACUUUCCGAAGGGACCGUCCCCUCGGUAAUGGCGAAUGGGACCCA [A45U G52A] | 0.798
47 | GGCCGGCAUGGUCCCAGCCUCCUCGCUGGCGCCGGCUGGGCAACUUUCCGACGGGACCGUCCCCUCGGUAAUGGCGAAUGGGACCCA [A45U G52C] | 0.743
48 | GGCCGGCAUGGUCCCAGCCUCCUCGCUGGCGCCGGCUGGGCAACUUUCCGAGGGGACCUUCCCCUCGGUAAUGGCGAAUGGGACCCA [A45U G59U] | 0.903
49 | GGCCGGCAUGGUCCCAGCCUCCUCGCUGGCGCCGGCUGGGCAACUUUCCGAGGGGACCCUCCCCUCGGUAAUGGCGAAUGGGACCCA [A45U G59C] | 0.969
50 | GGCCGGCAUGGUCCCAGCCUCCUCGCUGGCGCCGGCUGGGCAACUUUCCGAGGGGACCAUCCCCUCGGUAAUGGCGAAUGGGACCCA [A45U G59A] | 1
51 | GGCCGGCAUGGUCCCAGCCUCCUCGCUGGCGCCGGCUGGGCAACUUUCCGAGGGGACCGUCCCCUCGGUAAUGGCGAAUGGGACCUA [A45U C86U] | 0.95
52 | GGCCGGCAUGGUCCCAGCCUCCUCGCUGGCGCCGGCUGGGCAACUUUCCGAGGGGACCGUCCCCUCGGUAAUGGCGAAUGGGACCAA [A45U C86A] | 0.77
53 | GGCCGGCAUGGUCCCAGCCUCCUCGCUGGCGCCGGCUGGGCAACUUUCCGAGGGGACCGUCCCCUCGGUAAUGGCGAAUGGGACCGA [A45U C86G] | 0.795
54 | GGCCGGCAUGGUCCCAGCCUCCUCGCUGGCGCCGGCUGGGCAACUUUCCGAGGUGACCGUCCCCUCGGUAAUGGCGAAUGGGACCCA [A45U G54U] | 0.8
55 | GGCCGGCAUGGUCCCAGCCUCCUCGCUGGCGCCGGCUGGGCAACUUUCCGAGGCGACCGUCCCCUCGGUAAUGGCGAAUGGGACCCA [A45U G54C] | 0.849
56 | GGCCGGCAUGGUCCCAGCCUCCUCGCUGGCGCCGGCUGGGCAACAAUUCGAGGGGACCGUCCCCUCGGUAAUGGCGAAUGGGACCCA [U46A C48U] | 0.739
57 | GGCCGGCAUGGUCCCAGCCUCCUCGCUGGCGCCGGCUGGGCAACAAUGCGAGGGGACCGUCCCCUCGGUAAUGGCGAAUGGGACCCA [U46A C48G] | 0.802
58 | GGCCGGCAUGGUCCCAGCCUCCUCGCUGGCGCCGGCUGGGCAACUAUCCGAGGGGACCGUCCCCUCGGUAAUGGCGAAUGGGACCCA [A45U U46A] | 0.639
59 | GGCCGGCAUGGUCCCAGCCUCCUCGCUGGCGCCGGCUGGGCAACAAUCCGAGGGGACCGUCCCCUCGGUAAUGGCGAAUGGGACCCA [U46A] | 0.794
60 | GGCCGGCAUGGUCCCAGCCUCCUCGCUGGCGCCGGCUGGGCAACAAUCGGAGGGGACCGUCCCCUCGGUAAUGGCGAAUGGGACCCA [U46A C49G] | 0.415
61 | GGCCGGCAUGGUCCCAGCCUCCUCGCUGGCGCCGGCUGGGCAACAAUCUGAGGGGACCGUCCCCUCGGUAAUGGCGAAUGGGACCCA [U46A C49U] | 0.739
62 | GGCCGGCAUGGUCCCAGCCUCCUCGCUGGCGCCGGCUGGGCAACUUUCCGAGGGGACCGUCCCCUCGGUAAUGGCGAAAGGGACCCA [A45U U79A] | 0.192
63 | GGCCGGCAUGGUCCCAGCCUCCUCGCUGGCGCCGGCUGGGCAACUUUCCGAGGGGACCGUCCCCUCGGUAAUGGCGAACGGGACCCA [A45U U79C] | 0.26
64 | GGCCGGCAUGGUCCCAGCCUCCUCGCUGGCGCCGGCUGGGCAACUUUCCGAGGGGACCGUCCCCUCGUUAAUGGCGAAUGGGACCCA [A45U G68U] | 0.845
